Tests used:
[1] = test system: HRMEC; assay: HRMEC wound healing and cell viability assays; format: cell-based; details: in vitro, FIG. 7C-7D
[2] = test system: 661W cells; assay: 661W photoreceptor cells with paraquat-induced oxidative stress; format: cell-based; details: PQ-treated 661W, co-treatment with 500 ng/ml PF-05231023, perifosine 5 or 10 μM
Procedure: Photoreceptors (661W) cell culture: Photoreceptor 661W cells were cultured at 37° Celsius, 5% CO2 in a humidified atmosphere in Dulbecco's modified Eagle's medium (DMEM, #1196502, Gibco) supplemented with 10% fetal bovine serum (#S12450, Atlanta Biologicals) and 1% antibiotic/antimycotic solution. An equal number of cells per well was plated on a 6-well dish. Oxidative stress was induced with 0.5 mM paraquat (PQ, Sigma, #856177) for 1 hour at 37° Celsius. The culture media were changed and the cells were treated with vehicle (PBS) or 500 ng/ml PF-05231023 for 24 hours. Cells were collected for protein and RNA.
Real-time PCR: Retinas or 661W cells were lysed with QIAzol lysis reagent and incubated on ice for 15 minutes. 20% chloroform was added and incubated for 5 minutes at room temperature. […] Quantitative analysis of gene expression was generated using an Applied Biosystems 7300 Sequence Detection System with the SYBR Green Master mix kit and gene expression was calculated relative to Cyclophilin A ((5′-CAG ACG CCA CTG TCG CTT T-3′ (SEQ ID NO: 30); 5′-TGTCTTTGGAACTTTGTCTGCAA-3′(SEQ ID NO: 31)) (retinas) or β-actin ((5′-CGGTTCCGATGCCCTGAGGCTCTT-3′ (SEQ ID NO: 48), 5′-CGTCACACTTCATGATGGAATTGA-3′ (SEQ ID NO: 49)) (photoreceptor 661W cells) using the ΔΔCt method. Each sample was repeated in triplicate. […]

[3] = test system: hyperglycemic mouse neonates; assay: streptozotocin (STZ)-induced hyperglycemic ROP mouse model; format: in vivo
From the text: Hyperglycemia is a recently described risk factor for retinopathy of prematurity (ROP) in premature infants. In streptozotocin (STZ)-induced hyperglycemic ROP mouse model, retinal vascular development was confirmed as delayed. Specifically, FGF21 deficiency delayed normal retinal vascular network formation and worsened hyperglycemic ROP in such mice. Native (nFGF21) and long-acting FGF21 (PF-05231023) treatment were both observed to have promoted retinal vessel growth in hyperglycemic ROP. The protection of FGF21 observed was also confirmed as dependent upon adiponectin (APN).

[4] = test system: mice having oxygen-induced retinopathy; assay: mouse oxygen-induced retinopathy (OIR), retinal whole mounts and retinal qPCR at P17; format: in vivo; details: WT OIR mice, i.p. daily P12-P16, P17 retinal whole mounts, vs vehicle
Procedure: Oxygen-induced retinopathy: mice were exposed to 75% oxygen from P7 to P12. The mice were then returned to room air until P17 (Connor et al., 2009; Smith et al., 1994). High oxygen led to vessel loss and the relative hypoxia induced neovascularization which reached to maximum at P17 (Smith et al., 1994). Both genders of mouse pups were used with body weight ranging from 5.5 to 7 grams (Connor et al., 2009). The mice were randomly assigned to either native FGF21 (5 mg/kg, twice per day) or long-acting FGF21 (1 mg/kg PF-05231023) or phosphate buffered saline (PBS). The mice were intraperitoneally injected daily from P12 to P16. For the intra-vitreal injection of PF-05231023 (0.5 μl 10 μg/μl stock per eye) was delivered using 10 μl syringe with 35G needle (World Precision Instruments, Inc.) at P12. The contralateral eye was injected with vehicle control. At P17, retinal neovascularization was quantified (Connor et al., 2009; Smith et al., 1994). […] Retinal neovascularization was quantified as previously reported (Connor et al., 2009). Percentages of neovascularization were calculated by comparing the number of pixels in the neovascular areas with the total number of pixels in the retina. n is the number of eyes quantified. […]

[5] = Huang et al., 2013; cited from earlier work

Question: With O=C(COc1ccc(C(=O)c2ccccc2)cc1)NC1CCN(Cc2ccccc2)CC1 [AdipoRon] as the molecule, how does the “endothelial cell function (wound healing, viability)” value [1] read?
Answer: inhibited endothelial cell function in vitro

Question: With CCCCCCCCCCCCCCCCCCOP(=O)([O-])OC1CC[N+](C)(C)CC1 [perifosine] as the molecule, how does the “induction of NRF2 expression by PF-05231023” value [2] read?
Answer: dose-dependently inhibited

B1: Native FGF21: native FGF21 (nFGF21), unmodified FGF21 with short half-life (protein, UniProt Q9NSA1 29-209, looked up)
Fibroblast growth factor 21: HPIPDSSPLLQFGGQVRQRYLYTDDAQQTEAHLEIREDGTVGGAADQSPESLLQLKALKPGVIQILGVKTSRFLCQRPDGALYGSLHFDPEACSFRELLLEDGYNVYQSEAHGLPLHLPGNKSPHRDPAPRGPARFLPLPGLPPALPEPPGILAPQPPDVGSSDPLSMVGPSQGRSPSYAS
Question: Which retinal vascular growth [3] does the source give for B1 here?
Answer: improved retinal vascular growth

Question: And the retinal neovascularization [4]?
Answer: did not affect neovascularization

Question: What about the half-life [5] of the same molecule?
Answer: 24 min

Source: patent US12653863B2, “FGF21 compositions for treatment or prevention of neovascularization of the eye and methods therefor” (Children's Medical Center Corporation, priority 2017, dated 2026)
